From paper PMC10397247 come the findings set out here.

For one assay, the target named is T1, Core_NINN-es_KKKK.
T1 chain: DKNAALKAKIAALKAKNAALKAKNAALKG
In words: two-hybrid library CCmax.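 Further: natural log of median RNA to DNA barcode read ratio; higher means stronger binding.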 The conditions noted are these: mean of both orientations.

A further assay has as its target T2, Core_INNN-es_KEEK.
T2 chain: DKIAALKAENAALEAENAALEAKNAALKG
The assay can be described thus: two-hybrid library CCmax.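 Further: natural log of median RNA to DNA barcode read ratio; higher means stronger binding.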 The settings on record: mean of both orientations.

For the next assay, the target named is T3, Core_NNNI-es_KKEE.
T3 chain: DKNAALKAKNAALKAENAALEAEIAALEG
The assay can be described thus: two-hybrid library CCmax.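 Further: natural log of median RNA to DNA barcode read ratio; higher means stronger binding.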 The settings on record: mean of both orientations.

For a further assay, the target named is T4, 4H1081-bN.
T4 chain: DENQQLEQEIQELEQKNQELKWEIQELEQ
In words: two-hybrid library CCNG1.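 Further: natural log of median RNA to DNA barcode read ratio; higher means stronger binding.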 The conditions noted are these: mean of both orientations.

In a further assay the target is T5, 4H112-bN.
T5 chain: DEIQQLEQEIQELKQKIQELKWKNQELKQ
In words: two-hybrid library CCNG1.

A further assay has as its target T6, 4H1158-bN.
T6 chain: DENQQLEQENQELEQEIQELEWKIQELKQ
In words: two-hybrid library CCNG1.

Another assay concerns the target T7, 4H118-bN.
T7 chain: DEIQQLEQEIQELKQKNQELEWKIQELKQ
In words: two-hybrid library CCNG1.

Another assay has as its target T8, 4H1348-bN.
T8 chain: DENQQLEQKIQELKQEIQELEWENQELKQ
The assay can be described thus: two-hybrid library CCNG1.

The target in a further assay is T9, 4H1373-bN.
T9 chain: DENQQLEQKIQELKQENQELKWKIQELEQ
The assay can be described thus: two-hybrid library CCNG1.

In the next assay the target is T10, 4H1544-bN.
T10 chain: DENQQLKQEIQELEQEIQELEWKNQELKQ
The assay can be described thus: two-hybrid library CCNG1.

The target in a further assay is T11, 4H170-bN.
T11 chain: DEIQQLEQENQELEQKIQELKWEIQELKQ
In words: two-hybrid library CCNG1.

The target in another assay is T12, 4H1710-bN.
T12 chain: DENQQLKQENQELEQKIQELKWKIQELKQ
The assay can be described thus: two-hybrid library CCNG1.

The target of the next assay is T13, 4H1831-bN.
T13 chain: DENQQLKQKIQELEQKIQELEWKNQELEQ
The assay can be described thus: two-hybrid library CCNG1.

The next assay addresses T14, 4H1899-bN.
T14 chain: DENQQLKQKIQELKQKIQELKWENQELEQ
In words: two-hybrid library CCNG1.

The target of another assay is T15, 4H1985-bN.
T15 chain: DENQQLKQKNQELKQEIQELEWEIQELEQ
In words: two-hybrid library CCNG1.

Another assay concerns the target T16, 4H2586-bN.
T16 chain: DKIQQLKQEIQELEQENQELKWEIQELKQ
The assay can be described thus: two-hybrid library CCNG1.

In a further assay the target is T17, 4H2627-bN.
T17 chain: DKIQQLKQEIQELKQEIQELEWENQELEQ
The assay can be described thus: two-hybrid library CCNG1.

The target in a further assay is T18, 4H2673-bN.
T18 chain: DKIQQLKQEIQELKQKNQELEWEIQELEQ
The assay can be described thus: two-hybrid library CCNG1.

For a further assay, the target named is T19, 4H2702-bN.
T19 chain: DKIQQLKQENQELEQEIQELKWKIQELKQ
The assay can be described thus: two-hybrid library CCNG1.

In the next assay the target is T20, 4H3010-bN.
T20 chain: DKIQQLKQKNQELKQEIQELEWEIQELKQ
In words: two-hybrid library CCNG1.

A further assay has as its target T21, 4H3112-bN.
T21 chain: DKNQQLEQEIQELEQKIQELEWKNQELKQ
In words: two-hybrid library CCNG1.

The target in another assay is T22, 4H3162-bN.
T22 chain: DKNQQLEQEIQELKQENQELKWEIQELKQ
The assay can be described thus: two-hybrid library CCNG1.

For a further assay, the target named is T23, 4H3175-bN.
T23 chain: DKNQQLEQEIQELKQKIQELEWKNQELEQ
The assay can be described thus: two-hybrid library CCNG1.

The target in a further assay is T24, 4H3277-bN.
T24 chain: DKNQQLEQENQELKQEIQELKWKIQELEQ
In words: two-hybrid library CCNG1.

The target of the next assay is T25, 4H3298-bN.
T25 chain: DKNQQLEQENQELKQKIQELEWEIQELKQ
The assay can be described thus: two-hybrid library CCNG1.

In the next assay the target is T26, 4H3364-bN.
T26 chain: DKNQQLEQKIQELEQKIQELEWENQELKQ
The assay can be described thus: two-hybrid library CCNG1.

The target of the next assay is T27, 4H3427-bN.
T27 chain: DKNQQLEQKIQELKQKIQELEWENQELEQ
The assay can be described thus: two-hybrid library CCNG1.

The target in a further assay is T28, 4H346-bN.
T28 chain: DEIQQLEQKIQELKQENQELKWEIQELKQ
In words: two-hybrid library CCNG1.

For the next assay, the target named is T29, 4H3462-bN.
T29 chain: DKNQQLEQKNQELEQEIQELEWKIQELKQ
In words: two-hybrid library CCNG1.

The next assay deals with T30, 4H3497-bN.
T30 chain: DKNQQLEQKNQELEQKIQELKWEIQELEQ
In words: two-hybrid library CCNG1.

For the next assay, the target named is T31, 4H3613-bN.
T31 chain: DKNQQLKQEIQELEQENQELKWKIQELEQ
In words: two-hybrid library CCNG1.

A further assay deals with T32, 4H3628-bN.
T32 chain: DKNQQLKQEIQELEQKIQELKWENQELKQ
The assay can be described thus: two-hybrid library CCNG1.

For a further assay, the target named is T33, 4H3926-bN.
T33 chain: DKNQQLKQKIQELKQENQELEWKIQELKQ
In words: two-hybrid library CCNG1. The settings on record: mean of both orientations.

The next assay deals with T34, 4H4073-bN.
T34 chain: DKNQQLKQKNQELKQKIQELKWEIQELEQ
The assay can be described thus: two-hybrid library CCNG1.

The target of the next assay is T35, 4H457-bN.
T35 chain: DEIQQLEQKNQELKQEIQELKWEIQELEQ
The assay can be described thus: two-hybrid library CCNG1.

For a further assay, the target named is T36, 4H575-bN.
T36 chain: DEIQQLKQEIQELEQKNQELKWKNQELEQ
The assay can be described thus: two-hybrid library CCNG1.

In the next assay the target is T37, 4H591-bN.
T37 chain: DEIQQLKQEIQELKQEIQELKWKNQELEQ
The assay can be described thus: two-hybrid library CCNG1.

The target in the next assay is T38, 4H626-bN.
T38 chain: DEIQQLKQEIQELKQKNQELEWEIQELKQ
In words: two-hybrid library CCNG1.

In a further assay the target is T39, 4H683-bN.
T39 chain: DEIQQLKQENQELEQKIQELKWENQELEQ
In words: two-hybrid library CCNG1.

For another assay, the target named is T40, 4H754-bN.
T40 chain: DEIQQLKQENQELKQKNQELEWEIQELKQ
The assay can be described thus: two-hybrid library CCNG1.

The target of a further assay is T41, 4H780-bN.
T41 chain: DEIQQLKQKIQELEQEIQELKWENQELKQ
The assay can be described thus: two-hybrid library CCNG1.

In another assay the target is T42, 4H797-bN.
T42 chain: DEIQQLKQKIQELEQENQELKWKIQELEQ
In words: two-hybrid library CCNG1.

Another assay addresses T43, 4H855-bN.
T43 chain: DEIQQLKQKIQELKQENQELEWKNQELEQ
The assay can be described thus: two-hybrid library CCNG1.

For the next assay, the target named is T44, 4H906-bN.
T44 chain: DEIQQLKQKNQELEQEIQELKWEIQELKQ
The assay can be described thus: two-hybrid library CCNG1.

The target in the next assay is T45, 4H918-bN.
T45 chain: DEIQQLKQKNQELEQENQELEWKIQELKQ
The assay can be described thus: two-hybrid library CCNG1.

The next assay deals with T46, 4H953-bN.
T46 chain: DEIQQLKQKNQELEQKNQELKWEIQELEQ
The assay can be described thus: two-hybrid library CCNG1.

In another assay the target is T47, 4H968-bN.
T47 chain: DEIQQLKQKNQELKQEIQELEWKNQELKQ
In words: two-hybrid library CCNG1.

Another assay deals with T48, P10SHb.
T48 chain: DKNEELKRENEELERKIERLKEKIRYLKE
In words: two-hybrid library CCNG1.

The next assay deals with T49, P11SHb.
T49 chain: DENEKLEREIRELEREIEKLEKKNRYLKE
The assay can be described thus: two-hybrid library CCNG1.

Another assay deals with T50, P12SHb.
T50 chain: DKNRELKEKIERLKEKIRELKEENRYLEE
The assay can be described thus: two-hybrid library CCNG1.

For a further assay, the target named is T51, P1SHb.
T51 chain: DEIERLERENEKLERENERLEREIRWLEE
In words: two-hybrid library CCNG1.

For the next assay, the target named is T52, P2SHb.
T52 chain: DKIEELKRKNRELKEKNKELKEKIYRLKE
The assay can be described thus: two-hybrid library CCNG1.

The target in a further assay is T53, P3SHb.
T53 chain: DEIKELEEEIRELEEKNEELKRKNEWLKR
In words: two-hybrid library CCNG1.

The next assay addresses T54, P4SHb.
T54 chain: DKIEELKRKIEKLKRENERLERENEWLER
In words: two-hybrid library CCNG1.

The target of a further assay is T55, P5SHb.
T55 chain: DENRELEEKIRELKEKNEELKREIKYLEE
The assay can be described thus: two-hybrid library CCNG1.

In a further assay the target is T56, P6SHb.
T56 chain: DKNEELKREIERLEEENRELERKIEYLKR
In words: two-hybrid library CCNG1.

Another assay concerns the target T57, P7SHb.
T57 chain: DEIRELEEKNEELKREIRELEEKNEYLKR
The assay can be described thus: two-hybrid library CCNG1.

Another assay has as its target T58, P8SHb.
T58 chain: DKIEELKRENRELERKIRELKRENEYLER
In words: two-hybrid library CCNG1.

The target in the next assay is T59, P9SHb.
T59 chain: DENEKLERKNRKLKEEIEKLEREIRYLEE
The assay can be described thus: two-hybrid library CCNG1.

In the assay with Core_NINN-es_KKKK, DENAALEAEIAALEAENAALEAENAALEG [Core_NINN-es_EEEE] registered an interaction score of 2.
In turn, DEIAALEAKNAALKAKNAALKAENAALEG [Core_INNN-es_EKKE] yielded an interaction score in the assay with Core_INNN-es_KEEK of 1.91.
For the molecule DENAALEAENAALEAKNAALKAKIAALKG [Core_NNNI-es_EEKK], the interaction score in the assay with Core_NNNI-es_KKEE is 2.38.
For DENQQLEQEIQELEQKNQELKWEIQELEQ [4H1081-bN], the interaction score is -0.711 with 4H1081-bN; -0.856 with 4H112-bN; -1.04 in the assay with 4H1158-bN; -0.492 in the assay with 4H118-bN; -1.49 with 4H1348-bN; -1.6 in the assay with 4H1373-bN. Moreover, the interaction score with 4H1544-bN was -1.22; in the assay with 4H170-bN, -1.72; with 4H1710-bN, -2; with 4H1831-bN it was -0.661; in the assay with 4H1899-bN, -0.693; with 4H1985-bN it was -1.65. Besides, the interaction score was -0.764 with 4H2586-bN; -0.602 in the assay with 4H2627-bN; -0.316 with 4H2673-bN; 0.0755 in the assay with 4H2702-bN; -0.379 with 4H3010-bN; -0.643 with 4H3112-bN. Also, the interaction score with 4H3162-bN is -1.74; in the assay with 4H3175-bN, -0.589; with 4H3277-bN, -2.73; in the assay with 4H3298-bN, -1.1; with 4H3364-bN it was 0.163; with 4H3427-bN, -0.819. Moreover, the interaction score with 4H346-bN was -0.916; with 4H3462-bN it was -0.385; with 4H3497-bN it was -0.836; with 4H3613-bN, -1.17; in the assay with 4H3628-bN, -0.745; in the assay with 4H3926-bN, 1.86. Further, the interaction score was -0.961 with 4H4073-bN; -0.831 with 4H457-bN; -1.36 in the assay with 4H575-bN; -1 with 4H591-bN; -1.12 with 4H626-bN; -0.818 with 4H683-bN. Further, the interaction score in the assay with 4H754-bN was -0.498; in the assay with 4H780-bN, -1.12; with 4H797-bN it was -0.855; with 4H855-bN, -1.78; in the assay with 4H906-bN, -1.43; with 4H918-bN it was -1.87. Further, the interaction score with 4H953-bN is -0.906; with 4H968-bN it was -1.97.
Consider DKNEELKRENEELERKIERLKEKIRYLKE [P10SHb], for which the interaction score in the assay with P10SHb was 0.734; in the assay with P11SHb, 1.08; in the assay with P12SHb, -0.4; with P1SHb, -1.44; with P2SHb, 0.782; with P3SHb, -1.86. The interaction score in the assay with P4SHb was -0.49; with P5SHb it was 0.808; with P6SHb it was 1.07; with P7SHb it was -0.582; with P8SHb, -0.0171; with P9SHb it was 1.97.
